US11059864B2, “Chimeric antigen receptor (CAR) modulation” (TRUSTEES OF BOSTON UNIVERSITY, priority 2019, dated 2021)
Positions count from the first letter of the chain named.

Assays:
NFAT = assay: NS3 OFF CAR: NFAT-GFP levels in Jurkat T cells (components on separate vectors); type: cell-based; details: Jurkat T cells expressing two-component OFF-switch; presence of grazoprevir
Protocol: (§1) FIG. 8A-8D is a series of schematics and graphs showing testing of variations of the NS3 OFF CAR in Jurkat T cells. […] Combinations of components were tested as indicated. Each was introduced on a separate vector.
NS3 CAR OFF switches, comprising first and second components, were constructed as described herein. The first component comprises a peptide, which is specific for the NS3 of the second component, thus bringing the two components together.
(§2) Two different versions of the first component (c and d) and four different versions of the second component of the OFF-switch (i, ii, iii, and iv) were tested in Jurkat T cells. […] The OFF-switch CARs can also function when expressed in a single vector (see e.g., FIG. 9A-9C, FIG. 10A-10D).

Jurkat T cells = assay: NS3 OFF CAR: CD69 levels in Jurkat cells (components on separate vectors); type: cell-based; details: Jurkat cells expressing OFF-switch components; presence of grazoprevir
Protocol: as §1, §2

[1] = test system: Her2-expressing NALM cells; assay: Cell killing by Her2-specific NS3 CAR CD8+ T cells; type: cell-based, human
Protocol: FIG. 3A-3B is a series of graphs. FIG. 3A is a bar graph showing the killing efficiency of CD8+ T cells following expression of the NS3 CAR constructs or traditional CAR, in the presence or absence of GZV.
To further evaluate the downstream effector function of NS3 CAR T cells, their cell killing abilities were tested. Her2-specific NS3 CAR CD8+ T cells were mixed with Her2-expressing NALM cells at a 1:1 ratio and the extent of cell killing determined.
By varying the dose of NS3 inhibitor, the level of CD8+ T cell-mediated killing could be modulated.

NS3a-genotype 1b = NS3a-genotype 1b (Hepatitis C virus genotype 1b, UniProt P26662, S1165A); details: read-out: affinity of basal complex with NS3a-genotype 1b; cited from earlier work
NS3a-genotype 1b, sequence (P26662 1029-1207 D1056E/L1062V/P1112Q/M1120L/V1140I/I1158V/S1165A/V1176A/I1196V): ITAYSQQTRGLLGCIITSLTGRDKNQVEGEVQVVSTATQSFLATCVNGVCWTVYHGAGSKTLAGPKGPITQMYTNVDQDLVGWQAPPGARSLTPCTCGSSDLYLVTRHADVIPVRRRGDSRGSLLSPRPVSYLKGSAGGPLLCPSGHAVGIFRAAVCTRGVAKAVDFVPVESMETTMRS

NS3a/danoprevir complex = target: T1, NS3a/danoprevir complex (Hepatitis C virus genotype 1a, UniProt P27958); details: cited from earlier work
T1 construct: comprise the N-terminal 180 amino acids of the NS3 protein
T1 sequence (P27958 1027-1208, one chain of several): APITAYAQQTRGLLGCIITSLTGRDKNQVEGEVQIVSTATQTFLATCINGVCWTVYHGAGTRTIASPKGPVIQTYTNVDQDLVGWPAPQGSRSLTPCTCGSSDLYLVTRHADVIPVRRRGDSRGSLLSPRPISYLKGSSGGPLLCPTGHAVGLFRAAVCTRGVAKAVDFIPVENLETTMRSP

apo NS3a = target: T2, apo NS3a (Hepatitis C virus genotype 1a, UniProt P27958); details: cited from earlier work
T2 construct: comprise the N-terminal 180 amino acids of the NS3 protein
T2 sequence (P27958 1027-1208): as the sequence (P27958 1027-1208, one chain of several) above

grazoprevir/NS3a complex = details: cited from earlier work
grazoprevir/NS3a complex, sequence (P27958 1027-1208, one chain of several): as above

asunaprevir-bound NS3a = target: T3, asunaprevir-bound NS3a (Hepatitis C virus genotype 1a, UniProt P27958); details: cited from earlier work
T3 construct: comprise the N-terminal 180 amino acids of the NS3 protein
T3 sequence (P27958 1027-1208): as the sequence (P27958 1027-1208, one chain of several) above

Her2+ target NALM cells [2] = assay: IL-2 and IFN-gamma cytokine release by CD4+ and CD8+ primary T cells expressing NS3 CARs; type: cell-based; details: human CD4+ and CD8+ primary T cells; presence or absence of grazoprevir and/or Her2+ target NALM cells
From the text: (§3) FIG. 2A-2B is a series of bar graphs. FIG. 2A is a series of bar graphs showing CD69 expression in CD4+ and CD8+ T cells following expression of the NS3 CAR constructs or traditional CAR, in the presence or absence of GZV (Grazoprevir) and/or target cell. FIG. 2B is a series of bar graphs showing CD4+ and CD8+ T cell IL-2 and IFN-gamma cytokine release following expression the NS3 CAR constructs or traditional CAR, in the presence or absence of GZV and/or target cell.
(§4) These CARs were introduced into human CD4+ and CD8+ primary T cells and tested for functionality by mixing with Her2+ target NALM cells. As a readout for NS3 CAR control over T cell activity, levels of CD69 (an early T cell activation marker) and cytokine release (indicative of downstream effector function) were measured. It is expected that in the absence of grazoprevir (an NS3 inhibitor), the CAR is dismantled, rendering it non-functional. Once grazoprevir is added, the full CAR is assembled, thus allowing the T cell to activate when Her2-expressing target cells are present (see e.g., FIG. 1B).

Her2+ target NALM cells [3] = assay: CD69 expression in CD4+ and CD8+ primary T cells expressing NS3 CARs mixed with target cells; type: cell-based; details: human CD4+ and CD8+ primary T cells; presence or absence of grazoprevir and/or Her2+ target NALM cells
From the text: as §3, §4

C=C[C@@H]1C[C@]1(NC(=O)[C@@H]1C[C@@H]2CN1C(=O)[C@H](C(C)(C)C)NC(=O)O[C@@H]1C[C@H]1CCCCCc1nc3ccc(OC)cc3nc1O2)C(=O)NS(=O)(=O)C1CC1 [grazoprevir]
NFAT-GFP levels (NFAT): diminished to baseline
CD69 levels (Jurkat T cells): diminished to baseline
cell killing ability versus level of NS3 inhibitor ([1]; CD8+ T cells expressing the V2 NS3 CAR, 1:1 ratio, NS3 inhibitor varied between 0 uM-5 uM): can be used to regulate the level of killing efficiency
killing efficiency versus concentration of Grazoprevir ([1]; traditional CAR T cells or wild-type cells): does not impact traditional CAR T cells or wild-type cells

apo NS3a reader peptide GELDELVYLLDGPGYDPIHSD, SEQ ID NO: 204 [ANR]
Kd (NS3a-genotype 1b): 10 nM

B1: DNCR2: danoprevir/NS3 complex reader domain, SEQ ID NO: 101, 229 aa (protein)
chain: SSDEEEARELIERAKEAAERAQEAAERTGDPRVRELARELKRLAQEAAEEVKRDPSSSDVNEALKLIVEAIEAAVDALEAAERTGDPEVRELARELVRLAVEAAEEVQRNPSSSDVNEALHSIVYAIEAAIFALEAAERTGDPEVRELARELVRLAVEAAEEVQRNPSSRNVEHALMRIVLAIYLAEENLREAEESGDPEKREKARERVREAVERAEEVQRDPSGWLNH
selectivity over NS3a bound to the drugs grazoprevir or asunaprevir (NS3a/danoprevir complex): > 20,000 fold
Kd (NS3a/danoprevir complex; read-out: affinity for the NS3a/danoprevir complex): 0.036 nM
binding to apo NS3a (apo NS3a): no detectable binding

B2: DNCR1: danoprevir/NS3 complex reader domain, SEQ ID NO: 207, 229 aa (protein)
chain: B1 chain with H121L, Y125I, I131V, F132H, N171E, R178K, L185E, N189S
binding of NS3 in the presence of danoprevir (danoprevir-bound NS3a) (NS3a/danoprevir complex): high binding
binding of NS3 in the presence of grazoprevir (grazoprevir/NS3a complex): minimal binding
binding of NS3 in the presence of asunaprevir (asunaprevir-bound NS3a) (asunaprevir-bound NS3a): minimal binding

B3: D5: reader domain, SEQ ID NO: 206, 229 aa (protein)
chain: SSDEEEARELIERAKEAAERAQEAAERTGDPRVRELARELKRLAQEAAEEVKRDPSSSDVNEALKLIVEAIEAAVDALEAAERTGDPEVRELARELVRLAVEAAEEVQRNPSSSDVNEALLTIVIAIEAAVNALEAAERTGDPEVRELARELVRLAVEAAEEVQRNPSSREVNIALWKIVLAIQEAVESLREAEESGDPEKREKARERVREAVERAEEVQRDPSGWLNH
binding of NS3 in the presence of danoprevir (danoprevir-bound NS3a) (NS3a/danoprevir complex): moderate binding
binding of NS3 in the presence of grazoprevir (grazoprevir/NS3a complex): moderate binding
binding of NS3 in the presence of asunaprevir (asunaprevir-bound NS3a) (asunaprevir-bound NS3a): some binding

B4: GNCR1: grazoprevir/NS3 complex reader domain, SEQ ID NO: 105, 233 aa (protein)
chain: DIEKLCKKAEEEAKEAQEKADELRQRHPDSQAAEDAEDLANLAVAAVLTACLLAQEHPNADIAKLCIKAASEAAEAASKAAELAQRHPDSQAARDAIKLASQAARAVILAIMLAAENPNADIAKLCIKAASEAAEAASKAAELAQRHPDSQAARDAIKLASQAAEAVERAIWLAAENPNADIAKKCIKAASEAAEEASKAAEEAQRHPDSQKARDEIKEASQKAEEVKERCKS
binding of NS3 in the presence of danoprevir (danoprevir-bound NS3a) (NS3a/danoprevir complex): little to no affinity
Kd (grazoprevir/NS3a complex; read-out: affinity for the grazoprevir/NS3a complex): 140 nM
binding to apo NS3a (apo NS3a): little to no affinity
binding of NS3 in the presence of asunaprevir (asunaprevir-bound NS3a) (asunaprevir-bound NS3a): little to no affinity

B5: G5: reader domain, SEQ ID NO: 208 (named G3 in the sequence listing), 233 aa (protein)
chain: B4 chain with L42E, V44E, T49A, L52S
binding of NS3 in the presence of danoprevir (danoprevir-bound NS3a) (NS3a/danoprevir complex): no binding
binding of NS3 in the presence of grazoprevir (grazoprevir/NS3a complex): moderate binding
binding of NS3 in the presence of asunaprevir (asunaprevir-bound NS3a) (asunaprevir-bound NS3a): some binding

B6: Traditional CAR: traditional third-generation Her2 CAR without NS3; SEQ ID NO: 4, 37 (protein)
chain: ALPVTALLLPLALLLHAARPKYLLPTAAAGLLLLAAQPAMAQVQLVQSGAEVKKPGESLKISCKGSGYSFTSYWIAWVRQMPGKGLEYMGLIYPGDSDTKYSPSFQGQVTISVDKSVSTAYLQWSSLKPSDSAVYFCARHDVGYCTDRTCAKWPEYFQHWGQGTLVTVSSGGGGSGGGGSGGGGSQSVLTQPPSVSAAPGQKVTISCSGSSSNIGNNYVSWYQQLPGTAPKLLIYDHTNRPAGVPDRFSGSKSGTSASLAISGFRSEDEADYYCASWDYTLSGWVFGGGTKLTVLGGKPIPNPLLGLDSTNGAATTTPAPRPPTPAPTIALQPLSLRPEACRPAAGGAVHTRGLDFACDFWVLVVVGGVLACYSLLVTVAFIIFWVRSKRSRLLHSDYMNMTPRRPGPTRKHYQPYAPPRDFAAYRSKRGRKKLLYIFKQPFMRPVQTTQEEDGCSCRFPEEEEGGCELRVKFSRSADAPAYKQGQNQLYNELNLGRREEYDVLDKRRGRDPEMGGKPRRKNPQEGLYNELQKDKMAEAYSEIGMKGERRRGKGHDGLYQGLSTATKDTYDALHMQALPPR
IL-2 and IFN-gamma cytokine release (Her2+ target NALM cells [2]): no response to the NS3 inhibitor
CD69 expression (Her2+ target NALM cells [3]): no response to the NS3 inhibitor
